B1: FADD (other, UniProt Q13158 1-208, looked up)
chain: MDPFLVLLHSVSSSLSSSELTELKFLCLGRVGKRKLERVQSGLDLFSMLLEQNDLEPGHTELLRELLASLRRHDLLRRVDDFEAGAAAGAAPGEEDLCAAFNVICDNVGKDWRRLARQLKVSDTKIDSIEDRYPRNLTERVRESLRIWKNTEKENATVAHLVGALRSCQMNLVADLVQEVQQARDLQNRSGAMSPMSWNSDASTSEAS
notes: Detected with a polyclonal antibody to FADD; also called FADD/MORT1
B2: myc-tagged TRADD (other, UniProt Q15628 1-312, looked up)
chain: MAAGQNGHEEWVGSAYLFVESSLDKVVLSDAYAHPQQKVAVYRALQAALAESGGSPDVLQMLKIHRSDPQLIVQLRFCGRQPCGRFLRAYREGALRAALQRSLAAALAQHSVPLQLELRAGAERLDALLADEERCLSCILAQQPDRLRDEELAELEDALRNLKCGSGARGGDGEVASAPLQPPVPSLSEVKPPPPPPPAQTFLFQGQPVVNRPLSLKDQQTFARSVGLKWRKVGRSLQRGCRALRDPALDSLAYEYEREGLYEQAFQLLRRFVQAEGRRATLQRLVEALEENELTSLAEDLLGLTDPNGGLA
notes: Detected with HRP-conjugated antibody to myc; also called myc-TRADD; not shown: myc tag

Columns and labels:
[1] = target: T1, DR5 (expression construct in 293 cells, precipitated with Flag M2 antibody gel) (human, UniProt O14763 52-440); assay: co-immunoprecipitation from co-transfected 293 cell lysates with Flag M2 antibody gel; immunoblot with polyclonal antibody to FADD
T1 construct: also called Death Domain Containing Receptor 5; HLYBX88; not shown: Flag tag implied by immunoprecipitation with Flag M2 gel

[2] = target: T1, DR5 (expression construct in 293 cells, …); assay: co-immunoprecipitation from co-transfected 293 cell lysates with Flag M2 antibody gel; immunoblot with HRP-conjugated antibody to myc

| Binder | binding result [1] | binding result [2] |
| --- | --- | --- |
| B1 | no binding |  |
| B2 |  | no binding |

Reference: patent publication EP1788086A1 (HUMAN GENOME SCIENCES, INC., dated 2007)
